According to patent US20130203616A1:

Legend:
[1] = target: Human serum albumin (HSA) (human) (UniProt P02768); assay: competitive indirect ELISA, antibody in buffer captured on Protein A/G plate, HRP-conjugated HSA detection
[2] = target: Human serum albumin (HSA) (human) (UniProt P02768); assay: bridging ELISA (HSA on plate, biotin-HSA in solution), antibody spiked in normal human serum, after Protein A/G enrichment and acid elution
[3] = target: Human serum albumin (HSA) (human) (UniProt P02768); assay: bridging ELISA after sample preparation, plate coated with 20 µg/mL HSA, antibody in neat human serum
[4] = target: Human serum albumin (HSA) (human) (UniProt P02768); assay: competitive indirect ELISA, antibody in neat human serum, mixed with HRP-conjugated HSA, then Protein A/G plate
[5] = target: Human serum albumin (HSA) (human) (UniProt P02768); assay: competitive indirect ELISA, antibody in 1% pooled normal human serum preincubated with HRP-conjugated HSA, then Protein A/G plate

lowest antibody concentration detected [1]: 0.48 ng/mL | detection limit [2]: 125 ng/mL | limit of detection [3]: 250 ng/mL | assay sensitivity [4]: 10 µg/mL | detection limit [5]: 3 µg/mL
Substance: Rabbit anti-HSA antibody, ABCAM ab31657
